In patent US20110236309A1:

Columns and labels:
[1] = target: TGF-β2 (Homo sapiens (Human)) (UniProt P61812)
[2] = target: T1, TGF-β3 (Homo sapiens (Human)) (UniProt P10600)
T1 sequence: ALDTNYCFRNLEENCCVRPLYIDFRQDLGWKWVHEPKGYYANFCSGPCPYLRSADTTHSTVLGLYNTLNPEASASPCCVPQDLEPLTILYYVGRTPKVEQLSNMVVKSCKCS

[3] = target: TGF-β1 (Homo sapiens (Human)) (UniProt P01137)

IC50 for TGF-β2 (neutralization, Mv1Lu luciferase reporter cells) [1]: 8.67 nM | IC50 for TGF-β3 (neutralization, Mv1Lu luciferase reporter cells) [2]: 0.029 nM | IC50 for TGF-β1 (neutralization, Mv1Lu luciferase reporter cells) [3]: 1.43 nM
Substance: pan-specific TGF-β neutralizing antibody 1D11 (R&D Systems)
